Reference: US20120052069A1 (Amgen, published 2012)

Biological target: β-Klotho overexpressed in recombinant human 293T kidney cells
Test: cell-based or functional assay

EC50 (nM), ELK luciferase assay: 0.4 nM
Efficacy, ELK luciferase assay: 100%
B1: human FGF21 (wild-type mature FGF21) (ligand)
chain: HPIPDSSPLLQFGGQVRQRYLYTDDAQQTEAHLEIREDGTVGGAADQSPESLLQLKALKPGVIQILGVKTSRFLCQRPDGALYGSLHFDPEACSFRELLLEDGYNVYQSEAHGLPLHLPGNKSPHRDPAPRGPARFLPLPGLPPAPPEPPGILAPQPPDVGSSDPLSMVGPSQGRSPSYAS
